pKd: −log10 of the molar value. Values joined by “and” are separate entries in the source; they are usually repeats but may differ in a detail not shown here. Identical values can stand only once.
Target: RVC20 (mature), recombinant human IgG1 (human)
Experiment: BLI

RVC20 (mature), recombinant human IgG1 (human), sequence (heavy, as listed by the source, chain 1 of 2): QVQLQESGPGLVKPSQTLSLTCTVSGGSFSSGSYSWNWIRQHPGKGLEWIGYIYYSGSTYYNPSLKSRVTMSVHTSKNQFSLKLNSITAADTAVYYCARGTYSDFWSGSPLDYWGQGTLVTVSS
RVC20 (mature), recombinant human IgG1 (human), sequence (light, as listed by the source, chain 2 of 2): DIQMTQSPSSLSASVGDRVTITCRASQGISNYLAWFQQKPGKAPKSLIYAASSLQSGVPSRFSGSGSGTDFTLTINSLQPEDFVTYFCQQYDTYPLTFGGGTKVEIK

## RABV G domain III (E31-V56 and N182-D262 joined by three glycines), strain 9147FRA (domain or fragment)
  pKd: 8.10 and 7.95 and 7.91
